B3: ParC, full length (enzyme, E. coli, UniProt P0AFI2 1-752, looked up)
chain: MSDMAERLALHEFTENAYLNYSMYVIMDRALPFIGDGLKPVQRRIVYAMSELGLNASAKFKKSARTVGDVLGKYHPHGDSACYEAMVLMAQPFSYRYPLVDGQGNWGAPDDPKSFAAMRYTESRLSKYSELLLSELGQGTADWVPNFDGTLQEPKMLPARLPNILLNGTTGIAVGMATDIPPHNLREVAQAAIALIDQPKTTLDQLLDIVQGPDYPTEAEIITSRAEIRKIYENGRGSVRMRAVWKKEDGAVVISALPHQVSGARVLEQIAAQMRNKKLPMVDDLRDESDHENPTRLVIVPRSNRVDMDQVMNHLFATTDLEKSYRINLNMIGLDGRPAVKNLLEILSEWLVFRRDTVRRRLNYRLEKVLKRLHILEGLLVAFLNIDEVIEIIRNEDEPKPALMSRFGLTETQAEAILELKLRHLAKLEEMKIRGEQSELEKERDQLQGILASERKMNNLLKKELQADAQAYGDDRRSPLQEREEAKAMSEHDMLPSEPVTIVLSQMGWVRSAKGHDIDAPGLNYKAGDSFKAAVKGKSNQPVVFVDSTGRSYAIDPITLPSARGQGEPLTGKLTLPPGATVDHMLMESDDQKLLMASDAGYGFVCTFNDLVARNRAGKALITLPENAHVMPPVVIEDASDMLLAITQAGRMLMFPVSDLPQLSKGKGNKIINIPSAEAARGEDGLAQLYVLPPQSTLTIHVGKRKIKLRPEELQKVTGERGRRGTLMRGLQRIDRVEIDSPRRASSGDSEE

Key:
[1] = molecular target: the molecule itself; assay: native MS
[2] = molecular target: B3; assay: native MS
[3] = molecular target: B3; assay: ITC
[4] = molecular target: B3; assay: SEC
[5] = molecular target: T1, MukB, full length, wild type (E. coli, UniProt P22523 1-1486); assay: fluorescence correlation spectroscopy
T1 sequence (looked up): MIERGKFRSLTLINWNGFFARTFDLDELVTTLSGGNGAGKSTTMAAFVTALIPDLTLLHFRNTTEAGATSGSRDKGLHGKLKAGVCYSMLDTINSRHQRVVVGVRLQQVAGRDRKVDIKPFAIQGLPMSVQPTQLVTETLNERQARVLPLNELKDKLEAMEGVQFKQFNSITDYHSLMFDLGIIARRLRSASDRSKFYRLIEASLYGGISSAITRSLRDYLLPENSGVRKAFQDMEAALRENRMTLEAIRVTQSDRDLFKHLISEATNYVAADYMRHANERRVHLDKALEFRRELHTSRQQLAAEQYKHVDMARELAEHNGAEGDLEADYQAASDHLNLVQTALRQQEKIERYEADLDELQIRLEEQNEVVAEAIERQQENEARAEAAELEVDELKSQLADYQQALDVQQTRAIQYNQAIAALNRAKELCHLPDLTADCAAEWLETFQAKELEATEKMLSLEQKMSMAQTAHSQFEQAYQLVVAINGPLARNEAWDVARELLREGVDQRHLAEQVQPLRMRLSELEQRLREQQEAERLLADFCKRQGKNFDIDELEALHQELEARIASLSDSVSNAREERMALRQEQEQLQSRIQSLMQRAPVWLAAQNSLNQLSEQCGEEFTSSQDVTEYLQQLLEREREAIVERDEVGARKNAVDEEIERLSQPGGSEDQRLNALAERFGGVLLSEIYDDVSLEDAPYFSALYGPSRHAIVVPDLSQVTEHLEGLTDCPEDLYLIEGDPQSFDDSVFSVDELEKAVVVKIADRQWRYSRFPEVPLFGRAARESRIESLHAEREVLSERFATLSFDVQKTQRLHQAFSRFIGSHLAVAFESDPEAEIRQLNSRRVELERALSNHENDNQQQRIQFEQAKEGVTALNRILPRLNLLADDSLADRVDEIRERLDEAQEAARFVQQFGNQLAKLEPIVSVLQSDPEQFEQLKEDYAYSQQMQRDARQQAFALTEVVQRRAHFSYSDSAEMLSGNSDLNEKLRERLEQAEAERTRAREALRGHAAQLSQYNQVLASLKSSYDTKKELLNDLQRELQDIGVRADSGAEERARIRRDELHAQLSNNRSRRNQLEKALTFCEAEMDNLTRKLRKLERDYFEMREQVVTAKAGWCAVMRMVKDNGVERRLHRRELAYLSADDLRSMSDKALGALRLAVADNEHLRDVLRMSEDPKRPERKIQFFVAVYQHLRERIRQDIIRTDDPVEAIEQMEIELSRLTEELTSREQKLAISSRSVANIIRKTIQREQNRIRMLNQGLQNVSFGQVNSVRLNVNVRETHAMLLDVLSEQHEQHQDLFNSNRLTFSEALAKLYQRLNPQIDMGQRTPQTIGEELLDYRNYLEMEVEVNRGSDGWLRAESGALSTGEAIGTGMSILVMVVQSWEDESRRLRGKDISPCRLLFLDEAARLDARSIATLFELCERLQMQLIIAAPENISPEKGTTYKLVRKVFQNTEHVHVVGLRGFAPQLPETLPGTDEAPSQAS

B1: MukB long hinge (LH, 568-863) (domain or fragment, E. coli, UniProt P22523 568-863, looked up)
chain: SLSDSVSNAREERMALRQEQEQLQSRIQSLMQRAPVWLAAQNSLNQLSEQCGEEFTSSQDVTEYLQQLLEREREAIVERDEVGARKNAVDEEIERLSQPGGSEDQRLNALAERFGGVLLSEIYDDVSLEDAPYFSALYGPSRHAIVVPDLSQVTEHLEGLTDCPEDLYLIEGDPQSFDDSVFSVDELEKAVVVKIADRQWRYSRFPEVPLFGRAARESRIESLHAEREVLSERFATLSFDVQKTQRLHQAFSRFIGSHLAVAFESDPEAEIRQLNSRRVELERALSNHENDNQQQR
stoichiometry N [1]: 2
stoichiometry N [2]: 1 ParC dimer per LH dimer
Kd [3]: 690 nM
dH [3]: -7.48 kcal/mol
stoichiometry N [3]: 0.84

B2: ParE-His (enzyme, E. coli, UniProt P20083 1-630, looked up)
chain: MTQTYNADAIEVLTGLEPVRRRPGMYTDTTRPNHLGQEVIDNSVDEALAGHAKRVDVILHADQSLEVIDDGRGMPVDIHPEEGVPAVELILCRLHAGGKFSNKNYQFSGGLHGVGISVVNALSKRVEVNVRRDGQVYNIAFENGEKVQDLQVVGTCGKRNTGTSVHFWPDETFFDSPRFSVSRLTHVLKAKAVLCPGVEITFKDEINNTEQRWCYQDGLNDYLAEAVNGLPTLPEKPFIGNFAGDTEAVDWALLWLPEGGELLTESYVNLIPTMQGGTHVNGLRQGLLDAMREFCEYRNILPRGVKLSAEDIWDRCAYVLSVKMQDPQFAGQTKERLSSRQCAAFVSGVVKDAFILWLNQNVQAAELLAEMAISSAQRRMRAAKKVVRKKLTSGPALPGKLADCTAQDLNRTELFLVEGDSAGGSAKQARDREYQAIMPLKGKILNTWEVSSDEVLASQEVHDISVAIGIDPDSDDLSQLRYGKICILADADSDGLHIATLLCALFVKHFRALVKHGHVYVALPPLYRIDLGKEVYYALTEEEKEGVLEQLKRKKGKPNVQRFKGLGEMNPMQLRETTLDPNTRRLVQLTIDDEDDQRTDAMMDMLLAKKRSEDRRNWLQEKGDMAEIEV
binding result [4]: binds

B3
fold decrease in MatP-Cy3B binding to MukB at a 10-fold excess of competitor [5]: 3 fold

B4: MatP^4A (K71A, Q72A, R75A and R77A) (domain or fragment, E. coli, UniProt P0A8N0 1-132, looked up)
chain: MKYQQLENLESGWKWKYLVKKHREGELITRYIEASAAQEAVDVLLSLENEPVLVNGWIDKHMNPELVNRMAATIAAARKRHFNAEHQHTRKKSIDLEFIVWQRLAGLAQRRGKTLSETIVQLIEDAENKEKY
stoichiometry N [1]: 2

B5: MatP^4E (K71E, Q72E, R75E and R77E) (domain or fragment, E. coli, UniProt P0A8N0 1-132, looked up)
chain: MKYQQLENLESGWKWKYLVKKHREGELITRYIEASAAQEAVDVLLSLENEPVLVNGWIDKHMNPELVNRMEETIEAERKRHFNAEHQHTRKKSIDLEFIVWQRLAGLAQRRGKTLSETIVQLIEDAENKEKY
stoichiometry N [1]: 2

From publication doi:10.1101/2021.03.03.433707 (bioRxiv, 2021)
